Values quoted from earlier work in patent US7833964B2, “Methods of reducing visceral fat by increasing levels of insulin-like growth factor-I (IGF-I)” (Tercica, Inc., priority 2003, dated 2010).

Assays:
[1] = biological target: T1, human placental Type I IGF receptor (Homo sapiens, UniProt P08069); settings: relative to the comparator named in the value; cited from earlier work
T1 construct: the human placental Type I IGF receptor; host or cells: human placenta (endogenous receptor)

[2] = system: Type I IGF receptor of rat and mouse cells; settings: relative to IGF-I; cited from earlier work
[3] = biological target: T2, placental insulin receptor (Homo sapiens, UniProt P06213); settings: relative to the comparator named in the value; cited from earlier work
T2 construct: the placental insulin receptor; host or cells: placenta (endogenous receptor)

[4] = system: Type 2 IGF receptor; settings: relative to human IGF-I; cited from earlier work

(Leu^24)IGF-I: functional mutant of IGF-I described in Cascieri et al. 1988
affinity to the Type I IGF receptor [1]: lower affinity than IGF-I
affinity to the Type I IGF receptor of rat and mouse cells [2]: lower affinity than IGF-I
affinity to the insulin receptor [3]: lower affinity than IGF-I

(Phe^23, Phe^24, Tyr^25)IGF-I: functional mutant of IGF-I described in Cascieri et al. 1988
affinity to the Type I IGF receptor [1]: equipotent to human IGF-I
affinity to the Type 2 IGF receptor [4]: equipotent to human IGF-I
affinity to the insulin receptor [3]: equipotent to human IGF-I

(Ser^24)IGF-I: functional mutant of IGF-I described in Cascieri et al. 1988
affinity to the Type I IGF receptor [1]: lower affinity than IGF-I
affinity to the Type I IGF receptor of rat and mouse cells [2]: lower affinity than IGF-I
affinity to the insulin receptor [3]: lower affinity than IGF-I
